# Results: patent EP4803539A2
# Key:
# [1] = target: antigen of the 'Antigen binding ELISA' (not given); assay: Antigen binding ELISA of stability sample; F0; initial (repeated from Table 37)
# [2] = target: antigen of the 'Antigen binding ELISA' (not given); assay: Antigen binding ELISA of stability sample; F15; 25 °C 2 months
# [3] = target: antigen of the 'Antigen binding ELISA' (not given); assay: Antigen binding ELISA of stressed sample; F15; 25 °C dark 7 days
# [4] = target: antigen of the 'Antigen binding ELISA' (not given); assay: Antigen binding ELISA of stressed sample; F15; 25 °C 1000 lx 7 days
# [5] = target: antigen of the 'Antigen binding ELISA' (not given); assay: Antigen binding ELISA of stability sample; F15; 25 °C 1 month
# [6] = target: antigen of the 'Antigen binding ELISA' (not given); assay: Antigen binding ELISA of stressed sample; F15; 3 freeze-thaw cycles
# [7] = target: antigen of the 'Antigen binding ELISA' (not given); assay: Antigen binding ELISA of stability sample; F18 with 10 mM methionine; initial
# [8] = target: antigen of the 'Antigen binding ELISA' (not given); assay: Antigen binding ELISA of stressed sample; F18; 3 freeze-thaw cycles
# [9] = target: antigen of the 'Antigen binding ELISA' (not given); assay: Antigen binding ELISA of stability sample; F15 without methionine; 5 °C 2 months (same value as Table 37)
# [10] = target: antigen of the 'Antigen binding ELISA' (not given); assay: Antigen binding ELISA of stressed sample; F15; initial (repeated from Table 37)
# [11] = target: antigen of the 'Antigen binding ELISA' (not given); assay: Antigen binding ELISA of stressed sample; F18; 25 °C dark 7 days
# [12] = target: antigen of the 'Antigen binding ELISA' (not given); assay: Antigen binding ELISA of stability sample; F0; 25 °C 1 month
# [13] = target: antigen of the 'Antigen binding ELISA' (not given); assay: Antigen binding ELISA of stability sample; F15 without methionine; initial
# [14] = target: antigen of the 'Antigen binding ELISA' (not given); assay: Antigen binding ELISA of stability sample; F18; 25 °C 1 month
# [15] = target: antigen of the 'Antigen binding ELISA' (not given); assay: Antigen binding ELISA of stability sample; F0; 25 °C 2 months
# [16] = target: antigen of the 'Antigen binding ELISA' (not given); assay: Antigen binding ELISA of stressed sample; F18; 25 °C 1000 lx 7 days
# [17] = target: antigen of the 'Antigen binding ELISA' (not given); assay: Antigen binding ELISA of stability sample; F0; 5 °C 2 months (same value as Table 37)
# [18] = target: antigen of the 'Antigen binding ELISA' (not given); assay: Antigen binding ELISA of stability sample; F15 without methionine; initial (same value as Table 37)
# [19] = target: antigen of the 'Antigen binding ELISA' (not given); assay: Antigen binding ELISA of stability sample; F18 with methionine; initial (repeated from Table 41A)
# [20] = target: antigen of the 'Antigen binding ELISA' (not given); assay: Antigen binding ELISA of stability sample; F18 with methionine; 5 °C 2 months
# [21] = target: antigen of the 'Antigen binding ELISA' (not given); assay: Antigen binding ELISA of stability sample; F18; 25 °C 2 months
# [22] = target: antigen of the 'Antigen binding ELISA' (not given); assay: Antigen binding ELISA of stressed sample; F18; initial (repeated from Table 41A)
substance,measurement,setting,value
BAN2401 (antibody),"ELISA (Antigen binding ELISA), report result",[1],101%
same,"ELISA (Antigen binding ELISA), report result",[2],96.9%
same,"ELISA (Antigen binding ELISA), report result",[3],107%
same,"ELISA (Antigen binding ELISA), report result",[4],101%
same,"ELISA (Antigen binding ELISA), report result",[5],104%
same,"ELISA (Antigen binding ELISA), report result",[6],108%
same,"ELISA (Antigen binding ELISA), report result",[7],108%
same,"ELISA (Antigen binding ELISA), report result",[8],106%
same,"ELISA (Antigen binding ELISA), report result",[9],123%
same,"ELISA (Antigen binding ELISA), report result",[10],102%
same,"ELISA (Antigen binding ELISA), report result",[11],105%
same,"ELISA (Antigen binding ELISA), report result",[12],103%
same,"ELISA (Antigen binding ELISA), report result",[13],102%
same,"ELISA (Antigen binding ELISA), report result",[14],97%
same,"ELISA (Antigen binding ELISA), report result",[15],91.8%
same,"ELISA (Antigen binding ELISA), report result",[16],109%
same,"ELISA (Antigen binding ELISA), report result",[17],103%
same,"ELISA (Antigen binding ELISA), report result",[18],102%
same,"ELISA (Antigen binding ELISA), report result",[19],108%
same,"ELISA (Antigen binding ELISA), report result",[20],118%
same,"ELISA (Antigen binding ELISA), report result",[21],97.8%
same,"ELISA (Antigen binding ELISA), report result",[22],108%
